One data set is described as follows: in vivo. The following applies: rat, 1 mg/kg. The method, then:
Two compounds, i.e., the conjugate (13 DOX) obtained in Example 5a and MeO-PEG-pAsp (Hyd-DOX, Bn) (8 DOX) (Example 5b) prepared in method pursuant to Example 5a and having a different amount bound of DOX were used. An amount between 10-20 mg of each polymer was weighed accurately into a sample vial, to which 1 ml of dichloromethane was added to completely dissolve the polymer. Then, under the stream of nitrogen, the solvent was evaporated to prepare the polymer in the film form. Under reduced pressure, it was further dried at room temperature for 1 hour, and then 20 mM sodium phosphate buffer (pH 7.4)/5%(w/v) glucose was added to a polymer concentration of 10 mg/ml to hydrate the polymer film at 4° C. After stirring overnight at 4° C., it was subjected to ultrasonic treatment in ice chilled water for 10 minutes using the Biodisruptor (Nihonseiki Kaisha Ltd., High Power Unit). Subsequently, it was filtered with a 0.22 μm filter (Millipore, Millex™ GP PES) to prepare a micelle of the filtrate, which was used in the subsequent experiment.
To male Wistar rats (Charles River Laboratories Japan, Inc., 6-7 weeks old) under ether anesthesia, the above two micelles were administered into the tail vein under the following condition (n=3). Heparin-coated syringes were used to collect blood, and after centrifuging the blood drawn at 4° C., plasma was collected and stored at −30° C. until use.
Dose: 1 mg/kg in terms of the amount of DOX
Blood drawing timing: 5 minutes, 1, 3, 6, 9, 24, 48 hours after administration
Amount of blood drawn: 0.2-0.25 ml each time (from the jugular vein)
To 50 μl of rat plasma collected, 100 μl of acetonitrile and 50 μl of 0.4 N HCl were added in this order to make a total of 200 μl. After stirring, it was allowed to stand at room temperature for 1 hour. Subsequently, it was centrifuged (Funakoshi, Chibitan, 10,000 rpm, 10 minutes) at room temperature to collect 100 μl of the supernatant, to which 30 μl of 0.2 N NaOH, 20 μl of 1% Triton X-100, and 50 μl of 2 μg/ml of daunorubicin hydrochloride (Wako) (internal standard)/20 mM ammonium formate buffer (pH 3.0) was added in this order to make a total of 200 μl. The treatment sample liquid was filled into a HPLC sample vial, and subjected to HPLC analysis to determine the DOX concentration in the plasma.
To 50 μl of rat plasma collected, 100 μl of acetonitrile was added, centrifuged (Funakoshi, Chibitan, 10,000 rpm, 10 minutes) at room temperature to collect 50 μl of the supernatant, to which 100 μl of 2 μg/ml of daunorubicin hydrochloride (Wako) (internal standard)/20 mM sodium phosphate buffer (pH 7.4) was added. The treatment sample liquid was filled into a HPLC sample vial, and subjected to HPLC analysis to determine the DOX concentration in the plasma.
Using the values of the above (a) and (b), the concentration of polymer-conjugated DOX was calculated based on the following equation: (Polymer-conjugated DOX concentration)=(total DOX concentration)−(free DOX concentration) 4) Result of Determination of Concentration Change with Time in the Plasma
An amount between 10-20 mg each of 4 different polymers (8, 15, 20, and 39 DOX) was weighed accurately into a sample vial, to which 1 ml of dichloromethane was added to completely dissolve the polymer. Then, under the stream of nitrogen, the solvent was evaporated to prepare the polymer in the film form. Under reduced pressure, it was further dried at room temperature for 1 hour, and then 20 mM sodium phosphate buffer (pH 7.4)/5%(w/v) glucose was added to a polymer concentration of 10 mg/ml to hydrate the polymer film at 4° C. After stirring overnight at 4° C., it was subjected to ultrasonic treatment in ice chilled water for 10 minutes using the Biodisruptor (Nihonseiki Kaisha Ltd., High Power Unit). Subsequently, it was filtered with a 0.22 μm filter (Millipore, Millex™ GP PES) to prepare polymeric micelles of the filtrate, which were used in the subsequent experiment.

A short description of data set [1]: study on pH-dependency of drug release from polymeric micelles. Format: physicochemical. The following applies: 37° C. As for the experimental part:
To 950 μl of 20 mM ammonium formate buffer (pH 3), sodium acetate buffer (pH 5), or sodium phosphate buffer (pH 7.4) previously heated to 37° C., 50 μl of the polymeric micelles prepared in the above method were added to initiate a drug release experiment. At predetermined timing, 50 μl of the sample was collected, and instead the liquid amount was replenished with the same buffer, The free DOX concentration in the collected sample was determined by HPLC according to the above-mentioned method.

Data set [2] deals with Human prostate cancer PC-3 cells. Nature of the data set: drug efficacy study: tumor volume in PC-3-xenografted nude mice. Format: in vivo, male nude mice (Balb nu/nu). The following applies: tail vein, every 4 days for a total of 3 times. The source says: Human prostate cancer PC-3 cells subcutaneous transplanted to male nude mice were used as the model for evaluating drug efficacy.

A short description of data set [3]: side effects: changes in body weight of PC-3-xenografted nude mice. The following applies: tail vein, every 4 days for a total of 3 times.
Method: (§1) Male nude mice (Balb nu/nu, 5 weeks old) were purchased from Charles River Laboratories Japan, Inc., and human prostate cancer PC-3 cells were purchased from the Human Health Sciences Foundation Resources Bank. PC-3 cells that had been subcultured in a CO2 incubator were suspended in physiological saline for injection (Otsuka Pharmaceutical Co., Ltd.), and were subcutaneously injected into the back of the nude mice to a cell count of 2×10^6/50 μl per animal. Then, after keeping the nude mice for about 2 weeks, the administration of the drug was started when the mean of tumor volume reached about 50 mm^3.
Data set [4] is described as follows: MTD previously determined using normal healthy mice. Format: in vivo.
Method: as §1

Structures can show the parent of a compound that is named as a salt. Where two headings read alike, the source gives them in different places.

As to “MeO-PEG-pAsp (Hyd-DOX, Bn) [8DOX (Example 5b)]”, in the data set “in vivo” (iv), the AUC (commonly concentration integrated over time) amounted to 149000 ng·h/mL, the “concentration of free DOX relative to the total DOX concentration in plasma” value is listed as “about 1/100” and the “retention in the plasma (in words)” value is recorded as “persistent plasma concentration”.
As for “MeO-PEG-pAsp (Hyd-DOX, C8) [12DOX (Example 3)]”, in “in vivo” (iv), the AUC amounted to 90700 ng·h/mL.
For the compound “MeO-PEG-pAsp (Hyd-DOX) [8DOX (Comp. Ex. 5)]”, in “in vivo” (iv), the AUC came out at 19100 ng·h/mL and the “retention in the plasma (in words)” value is on record as “relatively persistent retention in the plasma”.
On to “MeO-PEG-pAsp (Hyd-DOX, NH4) [12DOX (Comp. Ex. 7)]”, for which, in “in vivo” (iv), the AUC stood at 69500 ng·h/mL, the “AUC relative to that of Example 5” value is reported as “about ¼” and the “increase in AUC compared to the DOX solution” value is given as “about 500 fold”.
For the compound “MeO-PEG-pAsp (Hyd-DOX) [20DOX (Comp. Ex. 6)]”, in the data set “in vivo” (iv), the AUC stood at 3100 ng·h/mL and the “retention in the plasma (in words)” value was “rapidly disappear”.
On the same counts, the results for “MeO-PEG-pAsp (Hyd-DOX) [15DOX (Comp. Ex. 6)]” are 7600 ng·h/mL and “relatively persistent retention in the plasma”.
Regarding “MeO-PEG-pAsp (Hyd-DOX, Bn) [13DOX (Example 5a)]”, the “release of DOX from the micelles” value in data set [1] (pH 3, 20 mM ammonium formate buffer) is given as “rapidly released”; in data set [1] (pH 5 to 7.4 (sodium acetate / sodium phosphate buffer)) it was “the release rate decreased”. Moreover, in data set [2] (11 mg/kg (MTD×⅔)), the “T/C at the maximum (tumor volume of drug group to control group)” value (“T/C at the maximum” below) turned out to be 0.32. In addition, the “decrease in body weight (maximum)” value in data set [3] (11 mg/kg (MTD×⅔)) worked out at 15%. For the same compound, the area under the curve (AUC) in the data set “in vivo” (iv) turned out to be 238000 ng·h/mL.
Regarding “MeO-PEG-pAsp (Hyd-DOX) [Comparative Example 6]”, the “T/C at the maximum” value in data set [2] (15 mg/kg (MTD)) came out at 0.42. The “decrease in body weight (maximum)” value in data set [3] (15 mg/kg (MTD)) was found to be 13%. Moreover, the MTD in data set [4] is reported as 15 mg/kg.
In the data set “in vivo” (male, Wistar), `COc1cccc2c1C(=O)c1c(O)c3c(c(O)c1C2=O)C[C@@](O)(C(=O)CO)C[C@@H]3O[C@H]1C[C@H](N)[C@@H](O)[C@H](C)O1` [epirubicin hydrochloride] returned an AUC of 40 ng·h/mL.
As to “MeO-PEG-pAsp (amide-DOX) [13DOX (Amide) (Comp. Ex. 9)]”, in the data set “in vivo” (iv), the AUC is 57900 ng·h/mL, the “AUC relative to that of Example 5” value was “about ¼” and the “increase in AUC compared to the DOX solution” value is reported as “about 500 fold”.
In the case of “MeO-PEG-pAsp (Hyd-DOX, C4-Phenyl) [6DOX (Example 7)]”, the AUC in “in vivo” (iv) came to 156000 ng·h/mL.
Turning to `COc1cccc2c1C(=O)c1c(O)c3c(c(O)c1C2=O)C[C@@](O)(C(=O)CO)C[C@@H]3O[C@H]1C[C@H](N)[C@H](O)[C@H](C)O1` [DOX solution (Comp. Ex. 12), doxorubicin hydrochloride], the “T/C at the maximum” value in data set [2] (5 mg/kg (MTD)) is recorded as 0.4. Besides, the MTD in data set [4] (mouse, in vivo, read-out: MTD) is 5 mg/kg.
With “MeO-PEG-pAsp (Hyd-DOX) [39DOX (Comp. Ex. 6)]”, in the data set “in vivo” (iv), the AUC was 1200 ng·h/mL and the “retention in the plasma (in words)” value is “rapidly disappear”.

Values taken from patent US8519051B2, “Block copolymer for drug conjugates and pharmaceutical composition” (priority 2006, dated 2013).
